Experiments:
[1] = molecular target: EphA2 at the surface of PC3 cells (endogenous) (human (endogenous in PC3)) (UniProt P29317); experiment: in-cell binding assay
[2] = molecular target: EphA2-Fc (entire ectodomain of EphA2 fused to the Fc fragment of IgG) (UniProt P29317); experiment: ELISA
Sequence of EphA2-Fc (entire ectodomain of EphA2 fused to the Fc fragment of IgG) (P29317 24-537): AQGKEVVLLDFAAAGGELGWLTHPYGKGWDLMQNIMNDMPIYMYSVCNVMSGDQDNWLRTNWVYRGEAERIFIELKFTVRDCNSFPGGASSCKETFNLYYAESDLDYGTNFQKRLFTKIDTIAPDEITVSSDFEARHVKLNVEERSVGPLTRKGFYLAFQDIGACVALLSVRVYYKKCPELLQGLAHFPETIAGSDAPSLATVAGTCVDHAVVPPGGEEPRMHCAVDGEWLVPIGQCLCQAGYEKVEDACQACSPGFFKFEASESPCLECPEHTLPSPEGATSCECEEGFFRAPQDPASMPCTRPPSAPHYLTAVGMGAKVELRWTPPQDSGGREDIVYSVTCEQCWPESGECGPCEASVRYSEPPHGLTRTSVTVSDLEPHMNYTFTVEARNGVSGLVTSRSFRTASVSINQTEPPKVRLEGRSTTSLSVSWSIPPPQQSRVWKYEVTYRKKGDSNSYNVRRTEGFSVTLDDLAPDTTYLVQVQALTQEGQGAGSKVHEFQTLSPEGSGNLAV

Sequence of EphA2 at the surface of PC3 cells (endogenous) (human (endogenous in PC3)) (P29317 24-976): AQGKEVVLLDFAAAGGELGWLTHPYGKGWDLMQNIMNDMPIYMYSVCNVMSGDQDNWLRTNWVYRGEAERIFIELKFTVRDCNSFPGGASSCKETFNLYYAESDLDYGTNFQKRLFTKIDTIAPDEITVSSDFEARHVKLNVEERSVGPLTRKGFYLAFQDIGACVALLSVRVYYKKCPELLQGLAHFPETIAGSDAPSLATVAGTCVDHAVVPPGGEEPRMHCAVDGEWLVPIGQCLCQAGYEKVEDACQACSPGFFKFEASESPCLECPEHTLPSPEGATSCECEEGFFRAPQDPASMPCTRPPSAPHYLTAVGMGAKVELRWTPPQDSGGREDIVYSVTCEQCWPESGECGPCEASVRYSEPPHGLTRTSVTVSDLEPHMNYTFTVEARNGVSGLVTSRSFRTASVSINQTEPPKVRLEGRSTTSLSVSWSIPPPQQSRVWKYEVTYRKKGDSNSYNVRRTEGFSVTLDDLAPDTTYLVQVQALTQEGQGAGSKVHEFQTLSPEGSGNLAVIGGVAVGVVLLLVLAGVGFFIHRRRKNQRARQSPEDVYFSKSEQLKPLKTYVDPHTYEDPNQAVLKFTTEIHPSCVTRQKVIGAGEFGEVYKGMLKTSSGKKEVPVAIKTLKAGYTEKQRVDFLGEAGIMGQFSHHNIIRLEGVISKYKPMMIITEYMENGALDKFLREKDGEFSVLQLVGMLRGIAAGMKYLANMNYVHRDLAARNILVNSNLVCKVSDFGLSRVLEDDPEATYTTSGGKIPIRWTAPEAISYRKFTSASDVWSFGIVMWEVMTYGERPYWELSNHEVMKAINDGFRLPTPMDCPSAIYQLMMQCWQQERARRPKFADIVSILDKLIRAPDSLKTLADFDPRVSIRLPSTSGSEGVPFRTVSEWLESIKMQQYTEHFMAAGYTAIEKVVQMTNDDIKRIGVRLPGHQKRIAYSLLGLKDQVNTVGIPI

EphrinA1-Fc (from UniProt P20827 19-182) (Fc fusion)
IC50 [1]: 400 nM
Kd [2]: 17 nM
